Measured values published in the RNAGym collection of RNA variant scans (doi:10.7554/elife.90254).

B1: LINE1-full (parent)
chain: UACGUAGGUGGUUUUCCCCUGAUAGUGCUAAGGGGGCCUGGAAGUUUGGACUGGGCAGAGCUCAACACAGCGUGGCAAAGUGGCUGUGGCUAGACUGCCUCUCUGGAUUCCUCGUCACUCAGCAGGGCAUCUCUGAGAGAAAUGCC

Variants of: B1
Assay: self-cleavage, relative activity (ratio to wild type); higher = more cleavage; in vitro, sequencing; the parent is a self-cleaving ribozyme

Question: For UACGUAGGUGGUUUUCCCCUGAUAGUGCUACGGGGGCCUGGAAGUUUGGACUGGGCAGAGCUCAACACAGCGUGGCAAAGUGGCCGUGGCUAGACUGCCUCUCUGGAUUCCUCGUCACUCAGCAGGGCAUCUCUGAGAGAAAUGCC, which self-cleavage is on record?
Answer: The self-cleavage was 0.54.

Question: For UACGUAGGUGGUUUUCCCCGGAUAGUGCUAAGGGGGCCUGGAAGUUUGGACUGGGCAGAGCUCAACACAGCGUGGCAAAGUGGCUGUGGCUAGACUGCCUCUCUGGAUUCCUCGUCACUCAGCAGGGCAUCCCUGAGAGAAAUGCC, which self-cleavage is on record?
Answer: Its self-cleavage is 1.4.

Question: With UACGUAGGUGGUUUUCCCCUGAUAGUGCUAAGGGGGCCUGGAAGUUUGGACUGGGCAGAGCUCAACACAGCGUGGCAAAGUGGCUGUGGCUAGACUGCCUCUCUGGAUGCCUCGUCACUCAGCAGGGCAUCUCUGAGAGAAAUGAC as the variant, how does the self-cleavage read?
Answer: The self-cleavage was 0.34.

Question: Which self-cleavage does the source give for UACGUAGGUGGUUUUCCCCUGAUAGUGCUAAGGGGGCCUGGAAGUUUAGACUGGGCAGAGCUCAACACAGCGUGGCAAAGUGGCUGUGGCUAGGCUGCCUCUCUGGAUUCCUCGUCACUCAGCAGGGCAUCUCUGAGAGAAAUGCC here?
Answer: Its self-cleavage is 0.13.

Question: With UACGUAGGUGGUUUUCCCCUGAUAGCGCUAAGGGGGCCUGGAAGUUUGGACUGAGCAGAGCUCAACACAGCGUGGCAAAGUGGCUGUGGCUAGACUGCCUCUCUGGAUUCCUCGUCACUCAGCAGGGCAUCUCUGAGAGAAAUGCC as the variant, how does the self-cleavage read?
Answer: Its self-cleavage is 0.6.

Question: Which self-cleavage does the source give for UACGUAGGUGGUUUUCCCCUGAUAGUGCUAAGGGGGCCUGGAAGUUUGGACUGGGCAGAGCUCAACACAGCGUGGCAAAGUGGCUGUGGCUAGACUGACUCUCUGGAUUCCCCGUCACUCAGCAGGGCAUCUCUGAGAGAAAUGCC here?
Answer: The self-cleavage was 0.05.

Question: Which self-cleavage does the source give for UGCGUAGGUGGUUUUCCCCUGAUAGUGCUAAGGGGGCCUGGAAGUUUGGACUGGGCAGAGCUCAACACAGCGUGGCAAAGUGGCUGUGGCUAGACUGCCUCUCUGGAUUCCUCGUCACUCAGCAGGGCAUCUCUGAGAGGAAUGCC here?
Answer: Its self-cleavage is 0.94.

Question: Which self-cleavage does the source give for UAGGUAGGUGGUUUUCCCCUGAUAGUGCUAAGGGGGCCUGGAAGUUUGGACUGGGCAGAGCUCAACACUGCGUGGCAAAGUGGCUGUGGCUAGACUGCCUCUCUGGAUUCCUCGUCACUCAGCAGGGCAUCUCUGAGAGAAAUGCC here?
Answer: Its self-cleavage is 0.11.

Question: Which self-cleavage does the source give for UACGUAGGUGGUUUUCCCCUGAUAGUGCUAAGGGGGCCUGGAAGUUUGGACUGGGCAGAGCUCAACACAGCGUGGCAAAGUGGCUGUGGCUAGACUGCCUCUCUGGCUUCCUCGUCACUCAGCAGGGCAUCUCUGGGAGAAAUGCC here?
Answer: Its self-cleavage is 1.73.

Question: Which self-cleavage does the source give for UACGUAGGUGGUUUUCCCGUGAUAGUGCUAGGGGGGCCUGGAAGUUUGGACUGGGCAGAGCUCAACACAGCGUGGCAAAGUGGCUGUGGCUAGACUGCCUCUCUGGAUUCCUCGUCACUCAGCAGGGCAUCUCUGAGAGAAAUGCC here?
Answer: Its self-cleavage is 0.73.

Question: For UACGUAGGUGGUUUUCCCCUGAUAGUGCUAAGGGGGCCUGGAAGCUUGGACUGGGCAGAGCUCAACGCAGCGUGGCAAAGUGGCUGUGGCUAGACUGCCUCUCUGGAUUCCUCGUCACUCAGCAGGGCAUCUCUGAGAGAAAUGCC, which self-cleavage is on record?
Answer: The self-cleavage was 1.08.

Question: For UACGUAGGUGGUUUUCCCCUGAUAGUGCUAAGGGGACCUGGAAGUUUGGACUGGGCAGAGCUCAACACAGCGUGGCAAAGUGGCUGUGGCUAGACUGCCUCUCUGGAUUCCUCGUCACUCAGCCGGGCAUCUCUGAGAGAAAUGCC, which self-cleavage is on record?
Answer: Its self-cleavage is 2.16.

Question: Which self-cleavage does the source give for UACGUAGGUGGUUUUCCCCUGAUAGUGCUAAGGGGGCCUGGAAGUUUGAACUGGGCAGAGCUCAACACAGCGUGGCAAAGUGGCUGCGGCUAGACUGCCUCUCUGGAUUCCUCGUCACUCAGCAGGGCAUCUCUGAGAGAAAUGCC here?
Answer: Its self-cleavage is 0.21.

Question: With UACGUAGGUGGUUUUCCCCUGAUAGUGCUAAGGGGGCCUUGAAGUUUGGACUGGGCAGAGCUCAACACAGCGUGGCAAAGUGGCGGUGGCUAGACUGCCUCUCUGGAUUCCUCGUCACUCAGCAGGGCAUCUCUGAGAGAAAUGCC as the variant, how does the self-cleavage read?
Answer: Its self-cleavage is 0.28.

Question: Which self-cleavage does the source give for UACGUAGGUGGUUGUCCCCUGAUAGUGCUAAGGGGGCCUGGAAGUUUGGACUGGGCAGAGCUCAACACAGCGUGGCAAAGUGGCUGUGGCUAGACUGCCUCGCUGGAUUCCUCGUCACUCAGCAGGGCAUCUCUGAGAGAAAUGCC here?
Answer: Its self-cleavage is 0.66.

Question: With UACGUAGGUGGUUUUCCCCUGAUAGUGCUAAGGGGGCCUGGAAGUUUGGACUGGGCAGAGCUCGACACAGCGUGGCAAAGUGGCUGUGGCUAGACUGCCUCUCUGGAUUCCUCGUCACUCAGCAGGGCAUCUCUGAGAGAAAAGCC as the variant, how does the self-cleavage read?
Answer: Its self-cleavage is 0.24.

Question: With UACGUAGGUGGUUUUCCCCUGAUAGUGCUAAGGGGGCCUGGAAGUUUGGACUGGGCAGGGCUCAACACAGCGUGGCAAAGUGGCUGUGGCUAGAAUGCCUCUCUGGAUUCCUCGUCACUCAGCAGGGCAUCUCUGAGAGAAAUGCC as the variant, how does the self-cleavage read?
Answer: Its self-cleavage is 0.01.

Question: For UACGUAGGUGGUUUUCCCCUGAUAGUGCUAAGGGGGGCUGGAAGUUUGGACUGGGCAGAGCUCAACACAGCGUGGCAAAGUGGCUGUGGCUGGACUGCCUCUCUGGAUUCCUCGUCACUCAGCAGGGCAUCUCUGAGAGAAAUGCC, which self-cleavage is on record?
Answer: Its self-cleavage is 0.04.

Question: For CACGUAGGUGGUUUUCCCCUGAUAGUGCUAAGGGGGCCUGGAAGUUUGGACUGGGCAGAGCUCAACACAGCGUGGCAGAGUGGCUGUGGCUAGACUGCCUCUCUGGAUUCCUCGUCACUCAGCAGGGCAUCUCUGAGAGAAAUGCC, which self-cleavage is on record?
Answer: Its self-cleavage is 1.38.

Question: For UACGUAGGUGGUUUUCCCCUGAUAGUGCUAAGGGGGCCUGGAAGUUUGGACUGGGCAGAGCUCAACACAGCGUGGCAAAGAGGCUGUGGCUAGACUGCCUCUCUGGAUUCCUCGUCACUCAGCAGGGCAUCUCUGAGAGAAAUGCU, which self-cleavage is on record?
Answer: Its self-cleavage is 1.56.
